Laboratory results reported in the supplement of paper PMC11865577.

These sequences were tested on TO-3-N3-2 (biotin conjugate) (assay: pull-down binding Z-score (relative to library population); higher = stronger binding). Settings: RNA library: Library-2.
Outline: (§1)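 Streptavidin beads with 100 pmol of biotin-conjugated small molecule were incubated for 60 min at 25 °C with 1 μg of heat-folded Cy5- or Cy3-end-labelled RNA library in phosphate/NaCl/KCl buffer. Bound RNA was eluted in hot SDS after three washes and hybridised to a DNA barcode microarray at 55.5 °C for 20 h. Each binding score is a library-referenced Z-score, computed after beads-only subtraction and a trimmed mean of barcoded replicate probes.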

| Sequence | pull-down binding Z-score |
| --- | --- |
| AGACCUUCCUUCCUUGUCU [hsa-mir-3163] | -0.206 |
| AGACUCUGGAUUUUACACUUGGAGUG [hsa-mir-887] | -0.196 |
| AGAGAUGAGCAUAAAGUUUUU [hsa-mir-6086] | -0.12 |
| AGAGCACCUCCUAGAGAAUGUUGAACUAAAGGUGCCC [hsa-mir-4723] | 0.528 |
| AGAGCGUGGGCUGGGGUUCAGGGACACCCUCU [hsa-mir-1229] | 0.738 |
| AGAGGCUGUGGGCAGGGGGAGAUGUGAAGGAAAGAACUAGGACCCAUUCAUCCACU [hsa-mir-6807] | 2.57 |
| AGAGUCCUGUUGUUGUAAGAUAGUGUCU [hsa-mir-550a-3] | -0.265 |
| AGAUAGUGAAGUAGAUUAGCAUCUACU [hsa-mir-18a] | 0.201 |
| AGAUAUAUAUAUACCUCAUAUGUAUAUGGUAUAC [hsa-mir-4777] | -0.53 |
| AGAUCACUUUUCUGCACUGGACAGUGAUCU [hsa-mir-3686] | -0.462 |
| AGAUCCCCUGUUAGAGACGGGCC [hsa-mir-6840] | 0.351 |
| AGAUCCUGUCUUUCGUAAUCAGCAGCU [hsa-mir-222] | 0.00116 |
| AGAUCUAUGUCAUAUAUACAGAUAU [hsa-mir-3924] | 0.268 |
| AGAUCUGUCUCUGAUUGUUUCCAAGAUCU [hsa-mir-6888] | 0.0544 |
| AGAUGAAAUGCCUUUGAUUU [hsa-mir-3658] | -0.388 |
| AGAUGAGGGUGUCGGAUCAACU [hsa-mir-193a] | 0.248 |
| AGAUGAGUUUAUGUUUUAUCCAACU [hsa-mir-193b] | -0.228 |
| AGAUGUGUUUCCAUUCCACUAUCAUAAU [hsa-mir-365a] | -0.128 |
| AGCAAGGUGCGUCGUAUCUUGCU [hsa-mir-4804] | -0.581 |
| AGCACUUUCUGUUGUCUGAAAGAAAAGAAAGUGCU [hsa-mir-516a-1_516a-2] | 0.0524 |
| AGCACUUUCUGUUUUGUGAAAGAAAAGAAAGUGCU [hsa-mir-516b-1] | -0.64 |
| AGCACUUUGUGUUUUGUGAAAGAAAGUGCU [hsa-mir-516b-2] | -0.0767 |
| AGCAGUACCAGACGGUUCUGUGG [hsa-mir-3198-1] | -0.0913 |
| AGCAGUACCAGAUGGUUCUGUGG [hsa-mir-3198-2] | -0.262 |
| AGCAUCUGAAUGGGUACAGUUGUUGU [hsa-mir-6818] | -0.0469 |
| AGCAUGCACUUAAUGUGGGUGUAUGU [hsa-mir-668] | -0.205 |
| AGCCAAAAUCACCAGGGA [hsa-mir-4534] | 0.118 |

The sequences below were run on TO-N3 (biotin conjugate) in the same assay as above. Settings: RNA library: Library-2.
Outline: as §1

| Sequence | pull-down binding Z-score |
| --- | --- |
| ACCACUGUGAAGACAGUAAAAUGUACAGUGGU [hsa-mir-597] | -0.598 |
| ACCAUAGUCAUAAGUUAGGAGAUGUUAGAGCUGUGAGU [hsa-mir-4286] | -0.108 |
| ACCAUAUCUAAGCUAAUGUGGUGGU [hsa-mir-876] | -0.139 |
| ACCCAGGACUCUUUCAUGACCA [hsa-mir-665] | 0.101 |
| ACCCGGGUGGUGGAGGUUGCAGUGAGCCAAGAUUGCGCCACUGCACUCCAGCCUGGGC [hsa-mir-1273a] | 1.94 |
| ACCCUGCAGCCCCAGCUGGAGGAUGAGGAGAUGCUGGGCUUGGGU [hsa-mir-4313] | 1.73 |
| ACCUAACACACUGCCUUUUAUGUGGUAGGU [hsa-mir-5094] | -1.02 |
| ACCUCCUGGCUUUUCCUCUGCAGCAUGGCUCGGACCUAGUGCAAUGUUUAAGCU [hsa-mir-6826] | 0.659 |
| ACCUGUGUGUGCCCAAGUGUUUCUAGCAAACACAGGG [hsa-mir-3649] | 0.757 |
| ACCUUCCAAGGCUCAGAAGGU [hsa-mir-4650-1_4650-2] | -0.702 |
| ACGAGAGUGAGUAGCAGGUCUC [hsa-mir-128-2] | 0.627 |
| ACGAUAUAGGUAUGUAUGUAUGUAUGUAUAAAAGCAGGGCAGUAUAUAUAUCGU [hsa-mir-4536-2] | 0.862 |
| ACGAUAUAUAUACUGCCCUGCUUUUAUACAUACAUACAUACAUACCUAUAUCGU [hsa-mir-4536-1] | -0.734 |
| ACGCGCUGUGACACUUCAAACUCGU [hsa-mir-126] | 0.062 |
| ACGUCCAGUGGUGCAGAGGUAAUGGACGU [hsa-mir-1306] | 0.283 |
| ACGUCUGGCCGCGUGCGCAUGU [hsa-mir-3175] | 0.838 |
| ACGUGACCUCCUGGGCCUG [hsa-mir-6770-1_6770-3_6770-2] | 0.829 |
| ACUAAUUUUUCCACUAGUUAGU [hsa-mir-4424] | -0.137 |
